B1: ZNF277 (parent)
chain: ILREELQKQRLREILEQQQQERND
B2: VPS39 (parent)
chain: ITEEKVCMVCKKKIGNSAFARYPN

Variants of: B1
Assay: protein stability index of a GFP-peptide fusion (GPS, HEK-293T) (PSI 1-6); higher = more stable
Details: c terminus: a fixed tail appended
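Further: lentivirally expressed fusions sorted by FACS into six bins by GFP to DsRed ratio, PSI derived from sequencing read proportions per bin multiplied by bin number.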

Variant | protein stability index
E4Q | 3.99
E4W | 3.28
E4M | 3.75
E4P | 4.95
E4F | 2.99
E4S | 4.18
E4N | 4.16
E4V | 3.88
E4Y | 3.38
E4I | 3.79
E4L | 3.05
E4T | 4.42
E4R | 3.61
E4A | 3.85
E4G | 4.89
E4D | 4.06
E4H | 3.95
E4K | 3.22
L2D | 5.63
L2G | 5.11
L2W | 3.79
L2N | 5.57

Variant | protein stability index
L2M | 4.21
L2C | 3.94
L2P | 4.86
L2H | 5.24
L2T | 5.04
L2E | 5.51
L2A | 5.13
L2K | 5.45
L2F | 4.55
L2Q | 5.61
L2I | 4.41
L2R | 5.03
L2S | 5.33
L2V | 4.73
L2Y | 4.81
R3Y | 3.64
R3S | 4.96
R3T | 4.36
R3V | 4.01
R3E | 5.21
R3H | 4.46
R3L | 2.82

Variant | protein stability index
R3Q | 4.69
R3A | 4.3
R3N | 4.37
R3I | 2.91
R3P | 5.31
R3W | 2.56
R3K | 4.64
R3M | 3.68
R3F | 3.4
R3G | 5.05
R3D | 5.06
I1C | 4.79
I1T | 5.08
I1E | 4.93
I1N | 4.99
I1P | 4.73
I1L | 4.09
I1F | 4.43
I1M | 4.66
I1W | 4.19
I1K | 4.24
I1S | 5.12

Variant | protein stability index
I1V | 4.4
I1G | 4.93
I1H | 4.89
I1Y | 4.75
I1A | 4.59
E5C | 3.76
E5D | 4.76
E5V | 2.42
E5S | 3.99
E5I | 2.94
E5P | 4.47
E5M | 3.05
E5G | 5.27
E5H | 3.81
E5K | 4.51
E5Q | 4.17
E5R | 3.68
E5F | 2.35
E5N | 4.7
E5A | 2.71
E5W | 2.84

Variants of: B2
Assay: as above
Details: c terminus: a fixed tail appended

Variant | protein stability index
F19N | 2.69
F19H | 2.89
F19Q | 3.58
F19Y | 3.06
F19M | 2.39
F19R | 2.91
F19I | 2.82
F19A | 3.58
F19W | 2.34
F19P | 3.14
F19C | 3.52
F19L | 2.28
F19T | 3.58
F19G | 3.29
F19D | 4.58
F19K | 3.55
F19E | 3.62
F19S | 2.56
F19V | 3.27
K12E | 2.46
K12V | 1.74
K12T | 1.77
K12G | 1.97
K12Y | 1.88
K12C | 2.93
K12Q | 2.25
K12S | 2.36

Variant | protein stability index
K12P | 2.25
K12A | 2.28
K12W | 2.18
K12M | 1.64
K12L | 1.3
K12R | 1.83
K12D | 2.63
K12N | 2.8
K12F | 1.68
K12H | 2.28
A18I | 1.81
A18L | 2.4
A18N | 2.99
A18G | 3.02
A18W | 2.08
A18P | 2.19
A18F | 2.15
A18Q | 2.41
A18T | 2.52
A18V | 2
A18R | 2.26
A18H | 2.73
A18C | 2.37
A18D | 3.65
A18E | 3.2
A18K | 2.4
A18S | 3.04

Variant | protein stability index
A18M | 2.34
A18Y | 1.89
N16Q | 3.01
N16V | 2.37
N16W | 2.08
N16H | 2.48
N16Y | 2.1
N16R | 2.29
N16E | 2.48
N16P | 2.81
N16G | 3.01
N16T | 2.77
N16I | 2.02
N16D | 2.62
N16K | 2.34
N16C | 2.8
N16M | 1.54
N16S | 2.35
N16F | 1.58
N16L | 2.05
N16A | 2.42
K11W | 1.69
K11Y | 2.12
P23F | 1.76
P23Y | 1.74
P23V | 4.25
